Experimental data published in paper PMC3005221 (Biochemistry, 2010).
[ ]: non-standard residue; d: D form. The star is where a group is joined. FITC = O=C1OC2(c3ccc(O)cc3Oc3cc(O)ccc32)c2ccc(NC(=S)*)cc21; Abu = CC[C@H](N)C(=O)O; βAla = NCCC(=O)O

Experiments:
Experiment in all cases: fluorescence polarisation
[1] = biological target: (His)6-tagged Ubp-M BUZ domain (UniProt Q9Y5T5 22-143)
Target sequence in this assay (Q9Y5T5 22-143): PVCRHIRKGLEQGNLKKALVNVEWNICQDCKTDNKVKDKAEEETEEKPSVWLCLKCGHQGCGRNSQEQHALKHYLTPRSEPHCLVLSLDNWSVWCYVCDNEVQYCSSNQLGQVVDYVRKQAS

[2] = biological target: (His)6-tagged Ubp-M BUZ domain (UniProt Q9Y5T5 22-143); remark: listed apart in the source
Target sequence in this assay (Q9Y5T5 whole entry, looked up, the tested form may be a part): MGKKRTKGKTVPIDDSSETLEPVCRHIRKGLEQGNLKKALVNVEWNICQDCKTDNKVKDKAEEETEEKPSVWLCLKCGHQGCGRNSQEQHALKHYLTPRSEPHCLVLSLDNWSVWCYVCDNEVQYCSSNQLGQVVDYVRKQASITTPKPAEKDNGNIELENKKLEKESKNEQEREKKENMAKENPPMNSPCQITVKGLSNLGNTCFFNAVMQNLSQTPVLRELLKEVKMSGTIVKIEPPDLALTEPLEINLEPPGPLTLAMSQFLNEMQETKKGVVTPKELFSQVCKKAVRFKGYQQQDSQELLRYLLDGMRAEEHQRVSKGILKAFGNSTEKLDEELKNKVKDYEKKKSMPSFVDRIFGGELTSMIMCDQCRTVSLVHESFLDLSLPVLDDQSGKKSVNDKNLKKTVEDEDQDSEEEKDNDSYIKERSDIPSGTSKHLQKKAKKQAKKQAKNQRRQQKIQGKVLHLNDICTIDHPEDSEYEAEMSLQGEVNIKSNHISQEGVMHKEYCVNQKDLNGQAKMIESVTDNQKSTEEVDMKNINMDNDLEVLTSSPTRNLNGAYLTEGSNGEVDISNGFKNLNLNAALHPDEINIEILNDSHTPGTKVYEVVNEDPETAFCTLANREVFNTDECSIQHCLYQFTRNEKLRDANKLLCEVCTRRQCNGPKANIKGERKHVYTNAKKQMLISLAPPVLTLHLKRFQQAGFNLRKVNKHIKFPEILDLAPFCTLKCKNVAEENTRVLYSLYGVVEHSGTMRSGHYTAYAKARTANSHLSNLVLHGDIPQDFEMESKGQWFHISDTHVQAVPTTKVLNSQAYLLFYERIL

GST-HDAC6 BUZ = GST-HDAC6 BUZ (UniProt Q9UBN7 1059-1215)
[3] = biological target: T1, HDAC6 BUZ domain (without GST tag) (UniProt Q9UBN7 1059-1215)
T1 sequence (looked up): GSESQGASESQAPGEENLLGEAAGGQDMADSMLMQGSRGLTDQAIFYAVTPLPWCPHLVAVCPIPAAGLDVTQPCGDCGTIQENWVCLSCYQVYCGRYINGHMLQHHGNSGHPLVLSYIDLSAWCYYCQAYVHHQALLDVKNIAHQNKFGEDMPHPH

B1: FITC-β-Ala-β-Ala-IAKGG (peptide)
peptide: {FITC-βAla-βAla}-IAKGG-OH
SMILES: CC[C@H](C)[C@H](NC(=O)CCNC(=O)CCNC(=S)Nc1ccc2c(c1)C(=O)OC21c2ccc(O)cc2Oc2cc(O)ccc21)C(=O)N[C@@H](C)C(=O)N[C@@H](CCCCN)C(=O)NCC(=O)NCC(=O)O
Kd [1]: 12 ± 3 µM

B2: FITC-β-Ala-β-Ala-YGFGG (peptide)
peptide: {FITC-βAla-βAla}-YGFGG-OH
SMILES: O=C(O)CNC(=O)CNC(=O)[C@H](Cc1ccccc1)NC(=O)CNC(=O)[C@H](Cc1ccc(O)cc1)NC(=O)CCNC(=O)CCNC(=S)Nc1ccc2c(c1)C(=O)OC21c2ccc(O)cc2Oc2cc(O)ccc21
Kd [1]: 13 ± 3 µM

B3: FITC-β-Ala-β-Ala-RGMGG (peptide)
peptide: {FITC-βAla-βAla}-RGMGG-OH
SMILES: CSCC[C@H](NC(=O)CNC(=O)[C@H](CCCNC(=N)N)NC(=O)CCNC(=O)CCNC(=S)Nc1ccc2c(c1)C(=O)OC21c2ccc(O)cc2Oc2cc(O)ccc21)C(=O)NCC(=O)NCC(=O)O
Kd [1]: 17 ± 3 µM

B4: FITC-β-Ala-β-Ala-YUIGG (peptide)
chain: {FITC-βAla-βAla}-Y[Abu]IGG-OH
SMILES: CC[C@H](NC(=O)[C@H](Cc1ccc(O)cc1)NC(=O)CCNC(=O)CCNC(=S)Nc1ccc2c(c1)C(=O)OC21c2ccc(O)cc2Oc2cc(O)ccc21)C(=O)N[C@H](C(=O)NCC(=O)NCC(=O)O)[C@@H](C)CC
Kd [2]: 12 ± 2 µM | Kd (GST-HDAC6 BUZ): 1.3 ± 0.1 µM

B5: FITC-β-Ala-β-Ala-NALGG (peptide)
peptide: {FITC-βAla-βAla}-NALGG-OH
SMILES: CC(C)C[C@H](NC(=O)[C@H](C)NC(=O)[C@H](CC(N)=O)NC(=O)CCNC(=O)CCNC(=S)Nc1ccc2c(c1)C(=O)OC21c2ccc(O)cc2Oc2cc(O)ccc21)C(=O)NCC(=O)NCC(=O)O
Kd [1]: 33 ± 7 µM | Kd [3]: 0.23 ± 0.02 µM

B6: FITC-β-Ala-β-Ala-LQDGF (peptide)
peptide: {FITC-βAla-βAla}-LQDGF-OH
SMILES: CC(C)C[C@H](NC(=O)CCNC(=O)CCNC(=S)Nc1ccc2c(c1)C(=O)OC21c2ccc(O)cc2Oc2cc(O)ccc21)C(=O)N[C@@H](CCC(N)=O)C(=O)N[C@@H](CC(=O)O)C(=O)NCC(=O)N[C@@H](Cc1ccccc1)C(=O)O
Kd [1]: > 150 µM
